Paper PMC10754444

Molecular target: ubiquitin (UniProt P0CG48)

Substance	Kcat/Km of Ub-AMC hydrolysis in vitro (substrate Ub-AMC, R&D Systems; 1.0 μM enzyme; 25°C) [M⁻¹ s⁻¹]	also measured
PRRSV DV PLP2_(385-578) V518S (domain or fragment)	–	Kcat/Km of Ub-AMC hydrolysis in vitro (substrate Ub-AMC, R&D Systems; 0.5 μM enzyme; 25°C): 1100 M⁻¹ s⁻¹
PRRSV DV PLP2_(385-578) V518S/V520A (domain or fragment)	133	–
PRRSV DV PLP2_(385-578) V520A (domain or fragment)	190	–
wt PRRSV DV PLP2_(385-578) (domain or fragment)	–	Kcat/Km of Ub-AMC hydrolysis in vitro (substrate Ub-AMC, R&D Systems; 25°C): 5000 M⁻¹ s⁻¹
